Experimental data reported in the supplement of paper PMC9170038.

Tested on: MS2 coat protein
Assay: apparent KD of MS2 coat protein; higher = weaker reporter binding
Conditions: Eterna round: R107
In short: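 Apparent KD is reported per design as the median of normalised binding-curve fits across its clusters. The RNA switches were made by on-chip transcription from Illumina sequencing clusters. SNAP-549-labelled MS2 coat protein was then added in twofold steps (0.7 or 1.5 nM to 3 µM; 0.8–1.5 h to 10–20 min per step) in 100 mM Tris-HCl pH 7.5, 80 mM KCl, 4 mM MgCl2, without or with constant ligand.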

[1] = input ligand: theophylline 20 uM
[2] = input ligand: theophylline 2 mM
[3] = input ligand: tryptophan 2.4 mM

Sequence	apparent KD of MS2 coat protein (input ligand: arginine 13.2 mM) [nM]	apparent KD of MS2 coat protein (input ligand: none) [nM]	apparent KD of MS2 coat protein [1] [nM]	apparent KD of MS2 coat protein [2] [nM]	apparent KD of MS2 coat protein [3] [nM]
GCUAGUGGCAGAAGGAGCGAGGCUACAUACGGGUACAUGAGGAUCACCCAUGUGGUGUGUACUCAGGUAGGUCGCUGCCACUAGC [SSAB NP+V+V2 #13 Same Structure]	193	921	754	977	467
GCUGCAGCUACGGCCGCCACUGUUACGUGAGACAUGAGGAUCACCCAUGUUGAUGUUUUACAGAAUAGGACCGGGUAGUUGUAGU [E 1.1]	8.84	–	11.3	9.87	–
GCUGCCAUACGAAGGAGCGCUGGUGUAGUGCGGCGAACAUGAGGAUCACCCAUGUGGCAGCAGCAGGUAGGUCGCGUAUGGCAGC [EAB #14]	12.3	11.2	14.6	12.6	11
GCUGGACUUUCGGCCGCCACUGAGAGAGUCGUGUGAACAUGAGGAUCACCCAUGUAAUAUAUAUACAGGACCGGGAGGGUUGUGC [4.P]	11.2	–	14.7	11.6	–
GCUGUAAGUGCAGAUACCAGCAAGUGAUAUUUCAUAUGACAUGAGGAUCACCCAUGUAACUGCCCUUGGCAGCUGCACUUACAGC [SSTHB #10]	114	–	122	–	241
GGAAAAGAAAGAAAAGAAAUCCCUCCCUCCCGAGGACCGGUACGGCCGCCACUCGCCCUCCCUCCCACAUGAGGAUCACCCAUGU [Exclusion - Trytophan A]	23.7	–	31.3	27.8	–
GGACUAACCAGAAGGAGCGACACAAAGCAGAAACUGCAUCCUCCGCACGAGGAUCACCCGUGUCAGGUAGGUCGCUGGUUAGUCG [ArgBX 28]	54	50.2	57	50.4	41.7
GGACUAACCAGAAGGAGCGACACGCAGAAACUGCAAAAUCCUCCACACGAGGAUCACCCGUGUCAGGUAGGUCGCUGGUUAGUCG [ArgXB 16 #Zipper #MS2Left #StaticStem #Blueprint]	44.6	75.3	83.4	86.1	53.8
GGACUAACCAGAAGGAGCGACGCAAAGCAGAAACUGCAUCCUCCGCACGAGGAUCACCCGUGUCAGGUAGGUCGCUGGUUAGUCG [ArgBX 28]	18.8	17.7	24.7	26.3	21.7
GGACUAACCAGAAGGAGCGACGCGCAGAAACUGCAAAAUCCUCCGCACGAGGAUCACCCGUGUCAGGUAGGUCGCUGGUUAGUCG	21.9	29.6	34.5	32.6	27.7
GGACUAACCAGAAGGAGCGACGCGCAGAAACUGCAAUUUCCUCCACACGAGGAUCACCCGUGUCAGGUAGGUCGCUGGUUAGUCG	15	17.4	18.7	17.6	16.6
GGACUAACCAGAAGGAGCGGCACAGCAGAAACUGCAAAUCCUCCGCACGAGGAUCACCCGUGUCAGGUAGGUCGCUGGUUAGUCG [ArgBX 28]	33.5	37.1	55.4	49.4	38.4
GGACUAACCAGAAGGAGCGGCGCGCAGAAACUGCAAAUUCCUCCGCACGAGGAUCACCCGUGUCAGGUAGGUCGCUGGUUAGUCG [ArgBX 28]	14.2	14.2	17.9	16.6	17.5
GGACUAACCAGAAGGAGCGGCGCGCAGAAACUGCAAUUUCCUCCACACGAGGAUCACCCGUGUCAGGUAGGUCGCUGGUUAGUCG [ArgBX 29]	13.1	11.4	15.1	12.9	12.3
GGAGGGACCAGAAGGAGCGACAUGAGGAUCACCCAUGUCUCCCGUUAUGGGAGUUCUUUAGGUCAGGUAGGUCGCUGGUCCCUCC [#1 Exclusion - Arginine B Attempt #6 (Inspired by Omei)]	55.7	158	87.3	138	86.1
GGAGGUACCCGAAGGAGCGACAUGAGGAUCACCCAUGUCUCCCGUUAUGGGAGUUCUUUAGGUCAGGUAGGUCGCGGGUACCUCC [#1 Exclusion - Arginine B Attempt #2 (Inspired by Omei)]	79.3	97.7	114	202	97
GGAGGUGAGAGAAGGAGCGGAAGUUUCGUUACAACAUGAGGAUCACCCAUGUAACGUUUAGUCCAGGUAGGUCGCUCUCGGGCGG [jbbgmullin]	19.2	16.3	25.2	30.7	26.9
